# Laboratory results published in US4016250A, “Method for testing for pregnancy” (Cornell Research Foundation, Inc., priority 1974, dated 1977).
# T1: PRL receptor sites in plasma membrane from bovine corpora lutea (Bos taurus, UniProt Q28172)
# T1 construct: plasma membrane from bovine corpora lutea; from tissue; host or cells: bovine corpora lutea, plasma membranes
# T1 sequence (Q28172 25-581): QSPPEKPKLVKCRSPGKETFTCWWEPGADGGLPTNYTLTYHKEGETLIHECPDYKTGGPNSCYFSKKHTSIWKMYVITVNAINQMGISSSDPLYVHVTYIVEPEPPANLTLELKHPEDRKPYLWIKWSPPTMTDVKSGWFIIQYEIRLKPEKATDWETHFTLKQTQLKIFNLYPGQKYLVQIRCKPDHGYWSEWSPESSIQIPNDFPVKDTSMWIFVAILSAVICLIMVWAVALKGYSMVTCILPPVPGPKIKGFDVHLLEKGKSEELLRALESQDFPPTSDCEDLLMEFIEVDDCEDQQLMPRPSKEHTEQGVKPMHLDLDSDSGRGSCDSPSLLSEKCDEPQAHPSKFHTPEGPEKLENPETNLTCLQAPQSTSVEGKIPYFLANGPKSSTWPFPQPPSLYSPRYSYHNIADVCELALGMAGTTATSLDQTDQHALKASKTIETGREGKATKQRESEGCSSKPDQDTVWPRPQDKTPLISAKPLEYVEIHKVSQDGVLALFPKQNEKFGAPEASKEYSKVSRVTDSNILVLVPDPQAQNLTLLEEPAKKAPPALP
# T2: PRL receptor sites in ovarian homogenates (Bos taurus, UniProt Q28172)
# T2 construct: from tissue; host or cells: ovarian homogenate (bovine, from the preparation section)
# T2 sequence (Q28172 25-581): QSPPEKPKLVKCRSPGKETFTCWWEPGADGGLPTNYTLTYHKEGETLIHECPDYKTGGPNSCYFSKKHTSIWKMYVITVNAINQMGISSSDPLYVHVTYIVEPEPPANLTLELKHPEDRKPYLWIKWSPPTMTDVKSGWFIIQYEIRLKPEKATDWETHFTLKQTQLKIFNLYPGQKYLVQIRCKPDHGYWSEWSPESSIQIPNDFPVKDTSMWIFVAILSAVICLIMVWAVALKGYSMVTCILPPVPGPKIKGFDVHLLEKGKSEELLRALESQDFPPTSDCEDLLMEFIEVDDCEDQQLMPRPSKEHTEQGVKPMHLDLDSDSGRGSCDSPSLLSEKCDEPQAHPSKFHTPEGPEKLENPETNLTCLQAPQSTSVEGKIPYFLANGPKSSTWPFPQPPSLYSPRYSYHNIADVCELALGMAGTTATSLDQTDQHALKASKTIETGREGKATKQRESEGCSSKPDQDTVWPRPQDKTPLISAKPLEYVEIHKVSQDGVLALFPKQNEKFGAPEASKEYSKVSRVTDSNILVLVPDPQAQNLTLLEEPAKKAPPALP
# Legend:
# [1] = target: T3, receptor for HCG in plasma membranes from bovine corpora lutea (Bos taurus, UniProt Q28005); experiment: Radioreceptorassay of HCG: competition with 125I-HCG for plasma membrane receptor; format: binding; details: for cross-reaction in the radioreceptorassay of HCG: highly purified preparations, 30 minutes at 37° C
# T3 construct: 100 g. of tissue from approximately 25 large corpora lutea; from tissue; host or cells: bovine corpora lutea of early pregnancy (slaughterhouse), plasma membrane fraction from zonal sucrose gradient
# Description: All procedures in the preparation of plasma membranes were carried out in an ice bath or at 4° C. Fresh bovine ovaries from early pregnancy (first trimester: fetus length from crown to rump up to 22 cm.) were obtained from the slaughter house and stored in liquid nitrogen until processed. In a typical experiment, 100 g. of tissue from approximately 25 large corpora lutea were cut into small pieces with a sharp steel blade and ground in 500 ml. of 10 mM. Tris-HCl buffer of pH. 7.8 containing one mM. of MgCl2, one MM. dithiothreitol, 10,000I.U. of Trasylol (FBA Pharmaceuticals) per liter and 0.25 M. sucrose. The homogenate was filtered through two layers of cheese cloth and the larger particles were reprocessed in 500 ml. of the buffer. […] The homogenate was centifuged at 650 xg. for 20 minutes in a Sorvall refrigerated centrifuge (RC B, Rotor GSA) to remove intact cells, cell debris and nuclei. The 650 × g. supernatant was again centrifuged at 13,000 g. for 20 minutes in the same centrifuge. Supernatant was this time discarded and the pellet was resuspended in 50 to 70 ml. of the Tris-HCl buffer with the aid of the Teflon-glass homogenizer. This suspension was injected in the core of a TI-14 zonal rotor (Model Beckman Spinco L3-50) spinning at 3,000 rpm. and containing 500 ml. of a linear sucrose gradient (LKB Ultrograd 11300 pump) from 30% (w/v) to 50% (w/v) sucrose and 120 ml. of cushion of 50% (w/v) sucrose (pumping rate 20 ml./min.) An overlay of 20 ml. was injected after the sample. After two hours of centrifugation at 45,000 rpm., the centrifuge was decelerated and the rotor content displaced with 55% sucrose at 20 ml./min. […]
# In Table I, the incubation was performed for 30 minutes at 37° C. in a Dunaboff water bath shaker. […] The supernates were aspirated and the pellets were counted in a Packard Autogamma counter with a 51% efficiency for I^125. The standard curves and the hormonal concentration in the plasma samples were calculated by a time sharing IBM computer using logit-log transformations.
# [2] = target: T1, PRL receptor sites in plasma membrane from bovine corpora lutea; experiment: Binding of 125I-hPRL to plasma membrane / ovarian homogenate (saturation, time course)
# Description: […] At the end of incubation, 1 ml of ice cold buffer was added to all tubes and tubes were centrifuged at 5,000 rpm for 20 minutes. The supernatants were aspirated. The pellets containing receptor bound hormones were counted in an Automamma counter with a 51% efficiency for ^125 I (Packard Instrument Company, Downers Grove, Illinois). Specific binding was calculated as the difference of binding in the tubes with and without unlabeled PRL. Specific binding of ^125 I-hPRL to plasma membrane from bovine corpora lutea was a saturable process.
# [3] = target: T2, PRL receptor sites in ovarian homogenates; experiment: Specificity of 125I-hPRL binding: displacement by unlabeled hormones; design: species or system bovine
# Description: A reaction mixture containing 100 ul of incubation buffer containing 10 IU Trasylol (FBA Pharmaceuticals, New York, New York), 50 ul of receptor preparation equivalent to 1-300 ug of protein and 100 ul of ^125 I-hPRL (SA; 50-70 uCi/ug) were incubated at 37° C. for 2 hours in the absence and in the presence of 1 ug of unlabeled bovine PRL. At the end of incubation, 1 ml of ice cold buffer was added to all tubes and tubes were centrifuged at 5,000 rpm for 20 minutes. The supernatants were aspirated. The pellets containing receptor bound hormones were counted in an Automamma counter with a 51% efficiency for ^125 I (Packard Instrument Company, Downers Grove, Illinois). Specific binding was calculated as the difference of binding in the tubes with and without unlabeled PRL.
# T3 sequence (Q28005 27-701): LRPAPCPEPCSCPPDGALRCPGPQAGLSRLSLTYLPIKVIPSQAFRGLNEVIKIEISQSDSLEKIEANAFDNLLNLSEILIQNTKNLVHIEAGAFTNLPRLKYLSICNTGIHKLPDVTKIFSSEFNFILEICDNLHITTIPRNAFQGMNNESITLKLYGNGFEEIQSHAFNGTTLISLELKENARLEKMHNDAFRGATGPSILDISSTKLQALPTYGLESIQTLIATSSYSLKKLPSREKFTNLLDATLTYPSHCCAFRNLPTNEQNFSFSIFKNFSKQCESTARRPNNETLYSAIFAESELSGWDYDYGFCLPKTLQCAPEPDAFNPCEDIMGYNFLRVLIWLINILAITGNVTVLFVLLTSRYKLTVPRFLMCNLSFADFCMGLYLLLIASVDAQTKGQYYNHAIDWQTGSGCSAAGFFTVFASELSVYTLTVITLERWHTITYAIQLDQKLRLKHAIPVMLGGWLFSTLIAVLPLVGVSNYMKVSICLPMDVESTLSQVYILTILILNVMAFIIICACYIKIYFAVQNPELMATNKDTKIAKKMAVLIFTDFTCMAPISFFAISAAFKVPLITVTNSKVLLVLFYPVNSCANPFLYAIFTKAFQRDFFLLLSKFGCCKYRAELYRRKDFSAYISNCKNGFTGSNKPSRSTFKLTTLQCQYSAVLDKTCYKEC
molecule,measurement,setting,value
"prolactin (protein, UniProt P01236 29-227, looked up) Prolactin: LPICPGGAARCQVTLRDLFDRAVVLSHYIHNLSSEMFSEFDKRYTHGRGFITKAINSCHTSSLATPEDKEQAQQMNQKDFLSLIVSILRSWNEPLYHLVTEVRGMQEAPEAILSKAVEIEEQTKRLLEGMELIVSQVHPETKENEIYPVWSGLPSLQMADEESRLSAYYNLLHCLRRDSHKIDNYLKLLKCRIIHNNNC",cross-reaction in the radioreceptorassay of HCG (FIG. 2),"[1]; FIG. 2 legends: TSH, HGH, PRL are plasma from hypothyroid, acromegalic, postpartum lactation subjects",no cross-reaction
same,cross-reaction in the radioreceptorassay of HCG,[1],complete lack of cross-reaction
"HPL: highly purified preparation of HPL, abbreviation not expanded in the text (protein, UniProt P0DML2 27-217, looked up) Chorionic somatomammotropin …: VQTVPLSRLFDHAMLQAHRAHQLAIDTYQEFEETYIPKDQKYSFLHDSQTSFCFSDSIPTPSNMEETQQKSNLELLRISLLLIESWLEPVRFLRSMFANNLVYDTSDSDDYHLLKDLEEGIQTLMGRLEDGSRRTGQILKQTYSKFDTNSHNHDALLKNYGLLYCFRKDMDKVETFLRMVQCRSVEGSCGF",cross-reaction in the radioreceptorassay of HCG,[1],complete lack of cross-reaction
"^125 I-hPRL: human prolactin iodinated with 125I by chloramine-T or lactoperoxidase (protein, UniProt P01236 29-227, looked up, 125I label, human prolactin iodinated with 125I by chloramine-T or lactoperoxidase) Prolactin: LPICPGGAARCQVTLRDLFDRAVVLSHYIHNLSSEMFSEFDKRYTHGRGFITKAINSCHTSSLATPEDKEQAQQMNQKDFLSLIVSILRSWNEPLYHLVTEVRGMQEAPEAILSKAVEIEEQTKRLLEGMELIVSQVHPETKENEIYPVWSGLPSLQMADEESRLSAYYNLLHCLRRDSHKIDNYLKLLKCRIIHNNNC",fraction of 125I-hPRL bound,"[2]; 100 ug of homogenate, absence of unlabeled PRL",20-20%
same,time to reach binding equilibrium,[2]; 37° C,2 h
same,binding,[2]; incubation,little binding
"bovine PRL: bovine prolactin, unlabeled (protein, UniProt P01239 31-229, looked up) Prolactin: TPVCPNGPGNCQVSLRDLFDRAVMVSHYIHDLSSEMFNEFDKRYAQGKGFITMALNSCHTSSLPTPEDKEQAQQTHHEVLMSLILGLLRSWNDPLYHLVTEVRGMKGAPDAILSRAIEIEEENKRLLEGMEMIFGQVIPGAKETEPYPVWSGLPSLQTKDEDARYSAFYNLLHCLRRDSSKIDTYLKLLNCRIIYNNNC",potency in competing with 125I-hPRL,[3],essentially of similar potency
same,effect on specific binding of 125I-hPRL to ovarian homogenates,[3]; 1 ug unlabeled hormone added,inhibited
"human chorionic somatomammotropin (protein, UniProt P0DML2 27-217, looked up) Chorionic somatomammotropin …: VQTVPLSRLFDHAMLQAHRAHQLAIDTYQEFEETYIPKDQKYSFLHDSQTSFCFSDSIPTPSNMEETQQKSNLELLRISLLLIESWLEPVRFLRSMFANNLVYDTSDSDDYHLLKDLEEGIQTLMGRLEDGSRRTGQILKQTYSKFDTNSHNHDALLKNYGLLYCFRKDMDKVETFLRMVQCRSVEGSCGF",displacement of 125I-hPRL bound to receptor protein,[3]; various concentrations,capable of displacing
"ovine PRL: ovine prolactin (protein, UniProt P01240 31-229, looked up) Prolactin: TPVCPNGPGNCQVSLRDLFDRAVMVSHYIHNLSSEMFNEFDKRYAQGKGFITMALNSCHTSSLPTPEDKEQAQQTHHEVLMSLILGLLRSWNDPLYHLVTEVRGMKGVPDAILSRAIEIEEENKRLLEGMEMIFGQVIPGAKETEPYPVWSGLPSLQTKDEDARHSAFYNLLHCLRRDSSKIDTYLKLLNCRIIYNNNC",potency in competing with 125I-hPRL,[3],essentially of similar potency
